This is an account of results in patent publication US20230406948A1 (APEXIGEN, published 2023).

No end group written: not given here.

Test [1] has as its target T1, mouse CD40 on mouse A20 cells (mouse, UniProt P27512 20-289).
T1 construct: whole, on cells
In words: FACS on mouse A20 cells, goat anti-human IgG (H+L) R-PE. The protocol: Cross-reactivity of APX005 with mouse CD40 was further determined by FACS binding to a mouse A20 cell line which expresses mouse CD40. An aliquot of 0.5×10⁶ A20 cells was added to 96 well plates and incubated with 100 μl diluted rat anti-mouse CD40 antibody conjugated with PE, APX005 or IgG1 control antibodies. After washing, 100 μl Goat-anti human IgG (H+L) conjugated with R-PE (Southern Biotech CAT #2040-09) were added at 1:200 dilution in PBS to the sample and incubated for detection of APX005 and control human IgG1. A rat anti-mouse CD40 antibody conjugated with PE was used as positive control. Samples were re-suspended with 0.5 ml PBS and analyzed by FACS.

Test [2] addresses T2, fusion protein of rabbit Fc and TweakR (UniProt Q9NP84 28-80, limits assumed).
T2 construct: Neither the species nor the order of the parts is stated; not shown: rabbit Fc
The test can be described thus: direct ELISA, 1 ug/ml rabbit Fc-TweakR fusion coated, goat anti-human IgG-HRP. The protocol: (§1) Binding selectivity of APX005 was assessed by direct ELISA to a panel of TNFR family proteins. A total of 1 μg/ml of fusion protein of rabbit Fc and CD40, RANK, TweakR, OX40, DR5 and 4-1 BB were coated on ELISA plates. Bound APX005 was detected using goat anti-human HRP-conjugated IgG.
(In general: An ELISA detects its analyte on a solid surface through an enzyme-linked reagent.)

The target of test [3] is T3, human CD40 on cells (native CD40 on Ramos cells, human B cells, human monocyte-derived dendritic cells); cell … (human, UniProt P25942 21-193).
T3 construct: Endogenous CD40 on human cells; also called native CD40 protein; CD40 positive cells
The test can be described thus: FACS on Ramos cells, 4 h at 37 C, Alexa 488 goat anti-human IgG. As for the experimental part:
(§2) In order to assess the target mediated-internalization of APX005 for evaluating its impact on ADCC activity, Ramos cells were incubated with APX005 for 4 h at 37° C., a temperature permissive for internalization, or at 4° C. for 30 minutes, a temperature at which internalization is minimized. Cells were washed with staining buffer, followed by incubation with Alexa 488 labeled goat anti-human IgG for an additional 30 minutes at 4° C. FACS analysis was performed to examine the level of APX005 on the cell surface.

For test [4], the target named is T3, human CD40 on cells (native CD40 on …). The test can be described thus: FACS on Ramos cells, 30 min at 4 C, Alexa 488 goat anti-human IgG. The protocol: as §2
Test [5] shares this target. In words: cell-based or functional assay.
Test [6] deals with T4, fusion protein of rabbit Fc and OX40 (UniProt P43489 29-216).
T4 construct: Neither the species nor the order of the parts is stated; not shown: rabbit Fc
T4 sequence (looked up): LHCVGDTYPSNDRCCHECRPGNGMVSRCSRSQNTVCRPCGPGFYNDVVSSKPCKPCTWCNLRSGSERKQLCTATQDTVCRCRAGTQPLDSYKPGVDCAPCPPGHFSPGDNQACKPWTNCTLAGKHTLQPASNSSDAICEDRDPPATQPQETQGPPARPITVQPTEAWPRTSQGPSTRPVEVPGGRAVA
In words: direct ELISA, 1 ug/ml rabbit Fc-OX40 fusion coated, goat anti-human IgG-HRP. The protocol:
as §1

In test [7] the target is T5, CD40 CLIPS peptide, residues 84-102 of CD40 (84TCEEGWHCTSEACESCVLH102) (human, linker (positions not given here) via CLIPS template (1,3-bis(bromomethyl)benzene); also: cysteine side chains coupled to CLIPS template(s), solid-phase bound peptide of Pepscan array).
T5 construct: It is the unmutated control peptide of the mutagenesis set
T5 peptide: TCEEGWHCTSEACESCVLH
The test can be described thus: PEPSCAN-based ELISA on solid-phase CLIPS peptides. The source says: To reconstruct discontinuous epitopes of the target molecule a library of structured peptides was synthesized. This was done using Pepscan's proprietary Chemically Linked Peptides on Scaffolds (CLIPS™) technology (Pepscan Presto, Lelystad The Netherlands) (see e.g., Timmerman et al. (2007). J. Mol. Recognit. 20:283-99; Slootstra et al. (1996). Molecular Diversity 1: 87-96). CLIPS™ technology provides the ability to structure peptides into single loops, double-loops, triple loops, sheet-like folds, helix-like folds and combinations thereof. CLIPS™ templates are coupled to cysteine residues. For this experiment, the side-chains of multiple cysteines in the peptides were coupled to one or two CLIPS™ templates. […]
The binding of antibody to each of the synthesized peptides was tested in a PEPSCAN-based ELISA. […] After one hour, the color development was measured. The color development was quantified with a charge coupled device (CCD)—camera and an image processing system.

T3 sequence (P25942 21-193): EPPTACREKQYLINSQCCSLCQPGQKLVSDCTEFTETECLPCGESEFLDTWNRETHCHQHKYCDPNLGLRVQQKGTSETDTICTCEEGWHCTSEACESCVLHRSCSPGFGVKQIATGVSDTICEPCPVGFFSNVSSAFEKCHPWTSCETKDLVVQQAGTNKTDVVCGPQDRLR
T1 sequence (P27512 20-289): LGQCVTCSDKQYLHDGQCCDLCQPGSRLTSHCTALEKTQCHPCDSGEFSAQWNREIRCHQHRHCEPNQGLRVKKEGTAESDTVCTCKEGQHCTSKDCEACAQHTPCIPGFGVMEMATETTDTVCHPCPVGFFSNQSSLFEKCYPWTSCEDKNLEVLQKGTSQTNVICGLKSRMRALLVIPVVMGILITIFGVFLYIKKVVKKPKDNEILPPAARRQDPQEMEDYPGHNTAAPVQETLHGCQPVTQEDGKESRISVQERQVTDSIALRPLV

B1: APX005, humanized version of the R-8 rabbit anti-CD40 antibody (antibody, IgG1, V domains shown)
VH: QVQLVESGGGVVQPGRSLRLSCAASGFSFSSTYVCWVRQAPGKGLEWIACIYTGDGTNYSASWAKGRFTISKDSSKNTVYLQMNSLRAEDTAVYFCARPDITYGFAINFWGPGTLVTVSS
VL: DIQMTQSPSSLSASVGDRVTIKCQASQSISSRLAWYQQKPGKPPKLLIYRASTLASGVPSRFSGSGSGTDFTLTISSLQPEDVATYYCQCTGYGISWPIGGGTKVEIK
notes: also called humanized R-8; APX005 wild type
B1: the binding result in test [1] is given as “no binding (tested: 10000 ng/ml)”; in test [2] it was “no binding”; in test [6], “no binding”; in test [7] it was “binds”. Further, the “EC50 (read off the curve)” value in test [3] and in test [4] was about 0.05 µg/mL in each case. In addition, the “EC50 (ng/ml), CD40 agonist activity: up-regulation of CD86 on human B cells” value in test [5] turned out to be 24.4 ng/mL.

The term EC50 (read off the curve) denotes the midpoint of the concentration-response curve.
